These results are taken from EP1481685A1.

Read-outs that look alike come from different tables or passages of the source.

Assay in all cases: cell-based or functional assay
In assay [1] the target is adenylyl cyclase (AC) in rat spinal cord lysates / membranes (major isoforms AC type 5 and 6).
In assay [2] the target is adenylyl cyclase (AC) in rat dorsal root ganglia (DRG) lysates (predominant isoforms AC type 4 and 6).
Assay [3] concerns the target adenylyl cyclase (AC) in rat spinal cord lysates / membranes (major isoforms AC type 5 and 6). The source holds these as a separate data set.

In assay [1], “PAM (Protein Associated with Myc), full length, purified from HeLa cells (from UniProt O75592 1-4678)” displayed an inhibition of Gαs-stimulated AC activity, spinal cord lysates from animals treated 1 hour with formalin, 30 nM PAM (% inhibition at 30 nM) of 25; an inhibition of Gαs-stimulated AC activity, spinal cord lysates from rats 96 hours after zymosan injection, 30 nM PAM (% inhibition at 30 nM) of 70; an inhibition of Gαs-stimulated AC activity, spinal cord lysates of control animals, 30 nM PAM (% inhibition at 30 nM) of 49; an inhibition of Gαs-stimulated AC activity, spinal cord preparations of zymosan-treated animals of 75 % inhibition. For the same substance, the inhibition of Gαs-stimulated AC activity, DRG lysates, 30 nM PAM (% inhibition at 30 nM) in assay [2] was 32. The inhibition of Gαs-stimulated AC activity, spinal cord lysates of control animals, 30 nM PAM (% inhibition at 30 nM) in assay [3] is 50.
